± gives the uncertainty stated by the source.
B1: Gamma-crystallin D, residues 90 to 170; numbered along this chain, P07320 (parent)
chain: IRLYEREDYRGQMIEFTEDCSCLQDRFRFNEIHSLNVLEGSWVLYELSNYRGRQYLLMPGDYRRYQDWGATNARVGSLRRV

Variants of: B1
Assay: abundance fitness (aPCA) (normalised: wild type 0, dead -1); higher = more abundant; growth selection in yeast, the domain comes from the species named
Settings: Homo sapiens

Variant	abundance fitness
I32V	0.127 ± 0.12
I32Y	0.325 ± 0.48
I32N	-0.101 ± 0.22
I32A	-0.11 ± 0.08
I32M	0.02 ± 0.28
I32G	0.063 ± 0.062
I32F	-0.001 ± 0.13
I32D	-0.346 ± 0.39
I32C	0.032 ± 0.12
I32T	-0.037 ± 0.1
I32K	-0.235 ± 0.16
I32Q	-0.251 ± 0.19
I32P	-0.003 ± 0.12
I32E	-0.201 ± 0.32
I32S	-0.007 ± 0.08
I32R	-0.062 ± 0.085
I32W	0.067 ± 0.15
I32L	0.119 ± 0.093
L23S	0.14 ± 0.067
L23I	-0.098 ± 0.15
L23R	-0.332 ± 0.061
L23F	-0.027 ± 0.15
L23H	-0.833 ± 0.49
L23V	-0.043 ± 0.082

Variant	abundance fitness
L23W	-0.215 ± 0.098
L23C	-0.023 ± 0.13
L23K	-0.033 ± 0.23
L23N	-0.055 ± 0.18
L23Q	-0.217 ± 0.11
L23A	0.086 ± 0.074
L23P	-0.029 ± 0.079
L23T	0.004 ± 0.088
L23G	-0.24 ± 0.062
S34C	-0.014 ± 0.091
S34T	-0.924 ± 0.15
S34P	-1.03 ± 0.11
S34I	-0.84 ± 0.26
S34W	-0.828 ± 0.21
S34H	-0.771 ± 0.23
S34E	-0.853 ± 0.19
S34A	0.112 ± 0.077
S34D	-0.936 ± 0.28
S34Y	-0.893 ± 0.19
S34M	-0.689 ± 0.092
S34R	-0.766 ± 0.11
S34G	-0.099 ± 0.045
S34V	-1.08 ± 0.16
D19I	-0.249 ± 0.13

Variant	abundance fitness
D19K	-0.144 ± 0.18
D19Q	0.041 ± 0.16
D19F	0.004 ± 0.15
D19P	-0.003 ± 0.091
D19Y	-0.155 ± 0.11
D19C	-0.065 ± 0.19
D19S	-0.115 ± 0.11
D19E	0.035 ± 0.13
D19W	-0.108 ± 0.11
D19R	-0.129 ± 0.069
D19N	-0.058 ± 0.29
D19M	-0.06 ± 0.094
D19H	-0.033 ± 0.17
D19V	-0.087 ± 0.075
D19L	-0.169 ± 0.085
D19T	0.039 ± 0.11
D19A	-0.116 ± 0.11
R26S	0.05 ± 0.09
R26W	0.061 ± 0.089
R26A	-0.027 ± 0.092
R26T	-0.048 ± 0.11
R26F	-0.292 ± 0.16
R26C	0.091 ± 0.12
R26H	0.008 ± 0.21

Variant	abundance fitness
R26Y	0.095 ± 0.22
R26E	0.047 ± 0.082
R26N	0.039 ± 0.23
R26M	-0.007 ± 0.11
R26P	0.071 ± 0.077
R26D	-0.053 ± 0.12
R26V	-0.006 ± 0.054
R26G	-0.018 ± 0.059
R26Q	0.032 ± 0.16
L35V	0.048 ± 0.093
L35M	-0.036 ± 0.22
L35R	-0.863 ± 0.18
L35Q	-0.01 ± 0.14
L35A	0.024 ± 0.066
L35Y	-0.249 ± 0.26
L35P	-1 ± 0.21
L35G	0.035 ± 0.087
L35I	0.231 ± 0.38
L35N	-0.156 ± 0.17
L35E	-1.08 ± 0.33
L35S	-0.035 ± 0.097
L35W	-0.552 ± 0.1
L35F	0.148 ± 0.1
L35H	-0.535 ± 0.36

Variant	abundance fitness
L35T	-0.034 ± 0.12
C20N	0.042 ± 0.15
C20E	0.135 ± 0.095
C20I	-0.047 ± 0.27
C20L	-0.01 ± 0.1
C20S	-0.011 ± 0.088
C20W	0.056 ± 0.094
C20T	0.015 ± 0.1
C20M	-0.04 ± 0.13
C20V	-0.061 ± 0.077
C20Y	0.3 ± 0.26
C20D	0.108 ± 0.14
C20H	-0.104 ± 0.19
C20R	0.069 ± 0.052
C20K	-0.096 ± 0.24
C20P	-0.486 ± 0.13
C20G	0.052 ± 0.05
E31P	0.152 ± 0.084
E31L	0.054 ± 0.085
E31I	0.139 ± 0.48
E31T	0.048 ± 0.12
E31N	0.005 ± 0.32
E31M	0.03 ± 0.19
E31W	0.078 ± 0.1

Variant	abundance fitness
E31R	0.004 ± 0.051
E31H	0.059 ± 0.22
E31D	-0.096 ± 0.18
E31V	-0.105 ± 0.082
E31K	-0.004 ± 0.14
E31G	0.035 ± 0.067
E31C	-0.192 ± 0.15
E31F	-0.109 ± 0.16
E31Q	0.116 ± 0.17
E31S	-0.123 ± 0.099
F27H	-0.343 ± 0.13
F27V	-0.092 ± 0.077
F27A	-0.056 ± 0.11
F27L	-0.105 ± 0.074
F27G	-0.106 ± 0.06
F27C	-0.031 ± 0.12
F27N	-0.086 ± 0.5
F27E	0.065 ± 0.064
F27I	-0.035 ± 0.19
F27S	0.011 ± 0.089
F27M	-0.129 ± 0.21
F27W	-0.103 ± 0.095
F27T	-0.09 ± 0.15
F27R	-0.126 ± 0.058

Variant	abundance fitness
F27Y	-0.048 ± 0.12
F27D	0.012 ± 0.16
F27K	-0.009 ± 0.15
F27P	0.103 ± 0.088
E18W	-0.142 ± 0.096
E18V	-0.004 ± 0.07
H33R	-0.005 ± 0.083
H33L	-0.024 ± 0.07
H33D	0.011 ± 0.11
H33M	0.05 ± 0.12
H33C	-0.01 ± 0.13
H33V	0.04 ± 0.059
H33T	-0.065 ± 0.11
H33G	0.079 ± 0.076
H33W	0.02 ± 0.12
H33F	-0.023 ± 0.29
H33A	0.039 ± 0.073
H33Q	0.04 ± 0.15
H33K	-0.057 ± 0.15
H33S	0.118 ± 0.1
H33I	0.07 ± 0.13
H33N	-0.082 ± 0.16
H33P	0.062 ± 0.092

Reference: the Human Domainome abundance scans (Beltran et al. 2025)
